Laboratory results: the RNAGym collection of RNA variant scans (doi:10.1073/pnas.2313332121)

B1: TPR t1 (parent)
chain: GACCAAUCUGCCCUCAGAGCUCGAGAACAUCUUCGGAUGCAGAGGAGGCAGGCUUCGGUGGCGCGAUAGCGCCAACGUCCUCAACCUCCAAUGCAUCCCACCACAUGAUGAUGCCUGAAGAGCCUUGGUUUUUUG

Variants of: B1
Experiment: polymerase ribozyme fitness, log enrichment relative to wild type (log ratio); higher = more active; in vitro selection for triplet polymerase activity
Summary of the method: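 Input and output libraries were sequenced on Illumina after a single in vitro selection round, run in triplicate on PCR-built, transcribed mutant libraries of each subunit of a heterodimeric triplet polymerase ribozyme. Selection annealed libraries to a biotinylated primer, the partner subunit and triplets, incubated them frozen at −7 °C, then gel-excised extended constructs for streptavidin-bead capture and RT-PCR. Genotypes with ≥10 input reads and ≥1 read per output were kept. Fitness is the logarithm, taken in base 2, of genotype enrichment divided by wild-type enrichment, using inverse-variance-weighted replicate averages.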

In order of rising “polymerase ribozyme fitness (log ratio)” value:
1. U7C C11G A27U G35U G45A U59C A84G C101U A121U  -8.13
2. U7C G48U A91U G113U G117A  -7.92
3. U7C U14A C22U G47U C56G G60A G120U  -7.5
4. U7C C12G G44A U92A C102A C123U  -7.32
5. U7C C34A G35U C56U C94A G110C  -7.29
6. U7A U9C U67C C94G G113C  -7.09
7. U7G A37U G47U U67G C70U  -7.04
8. U7C G17A A24G A26C C49A C56U C73G U87C G113A  -7
9. U7C C12A C15A C20G G69U C80U C104A C114A G127C  -6.96
10. U7C C11A C98A  -6.8
11. U7C G17U G35C U96A C97U U112A  -6.44
12. U7C C40A U109A U129A  -6.42
13. U7A G71C G110C  -6.39
14. U7C G10A U14A C53G C56G A84U G117U  -6.36
15. U7C C11G G65C A83U G120C A121U  -6.35
16. U7C G17U C31U A95C C123U  -6.24
17. U7C G23U A29G G60U G117A G128U  -6.24
18. U7C C8G C64G C85A U112G  -6.03
19. U7A U92A A103C  -5.64
20. U7C A37G G57A C62U  -5.38
21. U7C G69U C80A A83U G128C  -5.37
22. U7C C40G A95U C102A  -5.2
23. U7C A74G C79A G93A U106C G117U U129C U130C  -5.05
24. U7G A18G C20A A43G C72G  -5.03
25. U7C C13U G47U C85A A111U  -5.01
26. U7C C15U G45A U92A  -4.93
27. U7A U9G C70U C73U C79G A84G U96C  -4.92
28. U7C C20G  -4.91
29. U7A U9A C20U U38A G47U C56A G60U C72G C114A A121U C123U  -4.89
30. U7C A27U G36C G57A A74U  -4.85
31. U7C A90C G93A G117U U132A  -4.79
32. U7C A18G G117C  -4.72
33. U7A G45A C49G G71A C80U A84U C104U  -4.66
34. U7A G39A A50U C53G U130C  -4.47
35. U7A U106G G128C  -4.39
36. U7G A26G C34U G113A  -4.39
37. U7C U14A U32A C53G G63C G120A  -4.32
38. U7A G63U C80A  -4.19
39. U7A G39C A74G G107U G120U U130C  -4.02
40. U7C C8G G17U C40A C89G A91C U126G  -4.01
41. U7A G44C C70G  -3.95
42. U7A U14A A37G G69A  -3.91
43. U7C C40U C98A A121C  -3.62
44. U7C C8U A46U C56G G128U  -3.61
45. U7C U32C U106A G113U  -3.53
46. U7C A27G A46U G48U U59G G60U  -3.46
47. U7A G110C  -3.41
48. U7A U38C A41C G44U  -3.32
49. U7A G39U G69A  -3.24
50. U7C G17A A41G G52U  -3.17
51. U7C C28A U78A C123U  -3
52. U7C G42A C76U C101U G120C C123A  -3
53. U7C A18C G42U G77U A84U  -2.98
54. U7C G36A U116C A118U U132A  -2.98
55. U7A G48U C94G U116C G120A  -2.95
56. U7C G69A C88A  -2.92
57. U7A U109G  -2.9
58. U7C C53U G71A U92G C114U  -2.79
59. U7C A16G C20U G120U  -2.78
60. U7C A27G C62U G63A  -2.76
61. U7C C8G G61A C79A G110A  -2.75
62. U7C A91U G117U  -2.74
63. U7C A74C C98U U112A  -2.74
64. U7C C34A  -2.72
65. U7C U14A A46U C64U  -2.69
66. U7C G10C G60C C102U U112C  -2.68
67. U7C C22U C64U C88U C123U  -2.65
68. U7C C15A A46U G48U U130C  -2.63
69. U7C A26G G45A  -2.55
70. U7C A27C  -2.46
71. U7C G17A A84U  -2.39
72. U7G A18G U38G A50C C53U G113U  -2.37
73. U7A G42A G60C  -2.37
74. U7C A27G G69C  -2.37
75. U7C U14G G48U  -2.35
76. U7A U21C C70U G71C A90G  -2.31
77. U7A U9G C73U C79G A84G U96C  -2.27
78. U7C G36U G47C G48C  -2.23
79. U7A G42U G58C G71U C88U G113A  -2.19
80. U7A G45A G58A U59C  -2.17
81. U7A U92A  -2.1
82. U7A U14A G44U  -2.04
83. U7C G48U C53U G77A U81A U96C G120C  -2
84. U7C C101G  -1.98
85. U7A G47A U96A  -1.96
86. U7A U9G A46C C85G  -1.96
87. U7C G61C  -1.87
88. U7C C8G U21C C62G U78A  -1.85
89. U7C C98U U112A  -1.84
90. U7C G60A C89G U130G  -1.83
91. U7C G17C A121G  -1.82
92. U7A U9C U78A G110U  -1.82
93. U7G A16C U55G C88U A95U  -1.79
94. U7C C13U A105U  -1.79
95. U7C A18C  -1.7
96. U7A G60A C64U C124A U133C  -1.69
97. U7C C8G C85A U112G  -1.68
98. U7C C85G  -1.66
99. U7G A29G C89A C115A G122A  -1.64
100. U7C C85A C104U U116C  -1.6
101. U7C A27G G63A  -1.53
102. U7C A46G A108G C123A  -1.51
103. U7A U87A G127A  -1.5
104. U7C G42C C72A C88U C115U  -1.49
105. U7A G122U  -1.47
106. U7C G44A C79U C86U  -1.45
107. U7A U116G  -1.35
108. U7C U14G A74C  -1.29
109. U7A G47C  -1.26
110. U7C G58A C70U U78C U116C U131G  -1.13
111. U7C G17A  -1.12
112. U7A G39C U55C  -1.1
113. U7C C8G G45A C53U G63A U87A  -1.06
114. U7C C12U U106A C115U G127U  -1.03
115. U7G A41U C62U U132C  -0.941
116. U7G A41C C114G  -0.902
117. U7C G48C C70U  -0.869
118. U7G A27G G48C  -0.78
119. U7A G60A U81A  -0.716
120. U7C C49A G61U A75U U96A  -0.699
121. U7A G122A  -0.674
122. U7C C40A  -0.659
123. U7A G47A  -0.612
124. U7C U78C C85A C124G  -0.586
125. U7C C101A  -0.57
126. U7C G47A G48A G69U U78C  -0.567
127. U7C G135U  -0.566
128. U7A G48C  -0.566
129. U7C G44U  -0.497
130. U7A G71A  -0.425
131. U7C G71A  -0.421
132. U7C U21C G61U A83G G120A  -0.41
133. U7C C64U A100U  -0.384
134. U7G A16G A18C G117U  -0.355
135. U7C A46C G60U  -0.333
136. U7A G44C  -0.264
137. U7A U9G C82G  -0.227
138. U7A U21C C114A  -0.182
139. U7A U130A  -0.147
140. U7C G52U C98U C124A  -0.108
141. U7C G77C  -0.0984
142. U7C A46U C76G  -0.0822
143. U7C C13G  0.00167
144. U7C U131A  0.00611
145. U7G A41U U59G C73U A121C  0.0183
146. U7A G69C C115A  0.0666
147. U7A G69U C80U C99U C124G  0.126
148. U7C C73A C101U  0.14
149. U7C C101U C104U  0.219
150. U7A U55A U87C  0.229
151. U7C U9C  0.297
152. U7C G61A U87G  0.298
153. U7C  0.304
154. U7G  0.469
155. U7C A91G C123U U126A  0.505
156. U7C C13U  0.52
157. U7C C11U  0.539
158. U7A G39U G69U  0.59
159. U7C U116C  0.603
160. U7A G61A U112G  0.622
161. U7G A50G  0.715
162. U7G A41G A74U U106A U130C  0.791
163. U7C G71U U112A U133A  1.1
164. U7A G120C  1.32
165. U7A U112A  1.69
166. U7A G120A  1.77
167. U7C C124G  1.82
